For 16 substances, IC50 (pseudovirus neutralization) and IC50, pseudoviral neutralization results are on record in patent publication US20230265170A1.

Common to all, as to test: cell-based or functional assay
In experiment [1] the target is synthetic SARS-CoV-2 spike 'BA.4 + all' (SARS-CoV-2 (synthetic variant)).
Experiment [2] concerns the target SARS-CoV-2 spike (S) protein of the variant printed 'BA.1' in column 9 of Table 32 (SARS-CoV-2).
In experiment [3] the target is SARS-CoV-2 Omicron BA.3 spike (S) protein (SARS-CoV-2).
The target in experiment [4] is SARS-CoV-2 Omicron BA.1 spike (S) protein (SARS-CoV-2).
Experiment [5] deals with SARS-CoV-2 Omicron BA.2 spike (S) protein (SARS-CoV-2).

Omi-29 (antibody), sequence (VH): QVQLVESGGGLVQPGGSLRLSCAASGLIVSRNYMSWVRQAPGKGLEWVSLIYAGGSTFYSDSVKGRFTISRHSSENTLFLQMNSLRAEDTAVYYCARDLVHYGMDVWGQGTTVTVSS
Omi-29 (antibody), sequence (VL): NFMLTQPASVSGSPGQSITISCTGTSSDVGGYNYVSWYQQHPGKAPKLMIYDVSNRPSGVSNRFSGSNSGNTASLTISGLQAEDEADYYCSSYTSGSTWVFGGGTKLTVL
Omi-42 (antibody), sequence (VH): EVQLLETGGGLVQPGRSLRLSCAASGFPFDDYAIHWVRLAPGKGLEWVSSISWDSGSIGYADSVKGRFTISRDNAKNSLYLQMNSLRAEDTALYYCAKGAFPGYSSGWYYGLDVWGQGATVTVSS
Omi-42 (antibody), sequence (VL): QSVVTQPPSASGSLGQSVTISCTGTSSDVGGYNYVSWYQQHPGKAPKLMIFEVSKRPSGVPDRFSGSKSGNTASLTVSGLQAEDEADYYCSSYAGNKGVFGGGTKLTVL
AZD8895 (antibody), sequence (VH): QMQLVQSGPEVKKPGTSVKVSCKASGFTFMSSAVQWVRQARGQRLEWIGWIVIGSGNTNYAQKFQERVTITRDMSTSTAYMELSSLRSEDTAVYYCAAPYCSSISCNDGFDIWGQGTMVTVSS
AZD8895 (antibody), sequence (VL): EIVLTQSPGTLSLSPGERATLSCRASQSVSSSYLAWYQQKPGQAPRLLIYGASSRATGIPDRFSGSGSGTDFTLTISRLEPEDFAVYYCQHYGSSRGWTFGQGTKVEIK
Omi-12 (antibody), sequence (VH): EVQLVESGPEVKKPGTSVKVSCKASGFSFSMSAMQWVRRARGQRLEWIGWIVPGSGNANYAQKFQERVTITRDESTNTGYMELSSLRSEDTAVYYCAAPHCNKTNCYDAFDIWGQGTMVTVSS
Omi-12 (antibody), sequence (VL): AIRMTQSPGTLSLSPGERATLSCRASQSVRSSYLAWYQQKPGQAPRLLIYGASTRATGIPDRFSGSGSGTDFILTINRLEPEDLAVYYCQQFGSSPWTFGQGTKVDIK
Omi-18 (antibody), sequence (VH): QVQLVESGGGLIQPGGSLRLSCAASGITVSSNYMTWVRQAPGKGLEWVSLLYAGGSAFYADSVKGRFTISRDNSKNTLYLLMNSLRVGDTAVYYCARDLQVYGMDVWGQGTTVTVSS
Omi-18 (antibody), sequence (VL): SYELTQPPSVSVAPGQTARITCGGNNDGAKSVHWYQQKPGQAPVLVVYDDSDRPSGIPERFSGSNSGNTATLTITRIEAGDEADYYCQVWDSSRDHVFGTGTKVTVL
Omi-32 (antibody), sequence (VH): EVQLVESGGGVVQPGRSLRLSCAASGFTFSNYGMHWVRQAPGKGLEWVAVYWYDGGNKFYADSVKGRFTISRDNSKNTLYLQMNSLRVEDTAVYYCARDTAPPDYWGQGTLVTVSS
Omi-32 (antibody), sequence (VL): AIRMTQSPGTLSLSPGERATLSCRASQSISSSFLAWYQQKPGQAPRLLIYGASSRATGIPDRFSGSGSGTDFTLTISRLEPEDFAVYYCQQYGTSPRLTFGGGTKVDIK

Consider REGN10933 (antibody), for which the IC50 (pseudovirus neutralization) in experiment [1] and in experiment [2] was over 10 µg/mL each time.

For Omi-03 (antibody), the results for the IC50 (pseudovirus neutralization) in experiment [1] and in experiment [2] were 0.432 µg/mL and 0.014 µg/mL, respectively.

In the case of Ly-CoV555 (antibody), the IC50 (pseudovirus neutralization) in experiment [1] and in experiment [2] was over 10 µg/mL in each case.

Turning to AZD1061 (antibody), the IC50 (pseudovirus neutralization) in experiment [1] and in experiment [2] was over 10 µg/mL throughout.

In the case of AZD8895 (antibody), the IC50 (pseudovirus neutralization) in experiment [1] is over 10 µg/mL; in experiment [2], 5.11 µg/mL.

In the case of Omi-18 (antibody), the IC50 (pseudovirus neutralization) is 3.61 µg/mL in experiment [1] and 0.005 µg/mL in experiment [2].

Regarding ADG20 (antibody), the IC50 (pseudovirus neutralization) in experiment [1] and in experiment [2] was over 10 µg/mL each time.

For AZD7442, the IC50, pseudoviral neutralization is 0.065 µg/mL in experiment [3], 0.232 µg/mL in experiment [4] and 0.008 µg/mL in experiment [5]. For the same substance, the IC50 (pseudovirus neutralization) in experiment [1] was over 10 µg/mL; in experiment [2], 2.73 µg/mL.

As to S309 (antibody), the results for the IC50 (pseudovirus neutralization) in experiment [1] and in experiment [2] were 0.582 µg/mL and 0.436 µg/mL, respectively.

As for Ly-CoV1404 (antibody), the IC50 (pseudovirus neutralization) in experiment [1] and in experiment [2] was over 10 µg/mL each time.

Turning to Omi-12 (antibody), the IC50 (pseudovirus neutralization) in experiment [1] was over 10 µg/mL; in experiment [2], 0.004 µg/mL.

In the case of REGN10987 (antibody), the IC50 (pseudovirus neutralization) in experiment [1] and in experiment [2] was over 10 µg/mL throughout.

Turning to Omi-42 (antibody), the IC50 (pseudovirus neutralization) in experiment [1] was found to be 0.008 µg/mL; in experiment [2], 0.01 µg/mL.

In the case of Ly-CoV16 (antibody), the IC50 (pseudovirus neutralization) in experiment [1] and in experiment [2] was over 10 µg/mL throughout.

Take Omi-32 (antibody): the IC50 (pseudovirus neutralization) in experiment [1] and in experiment [2] was over 10 µg/mL each time.

Omi-29 (antibody): the IC50 (pseudovirus neutralization) in experiment [1] is over 10 µg/mL; in experiment [2] it was 0.025 µg/mL.
